The values that follow are results of earlier work, collected in patent publication US20250326839A1, “TREATMENT OF DISEASES RELATED TO COLONY-STIMULATING FACTOR 1 RECEPTOR DYSFUNCTION USING TREM2 AGONISTS” (Vigil Neuroscience, Inc., priority 2020, published 2025).

This data set concerns the target T1, TREM2 (Homo sapiens, UniProt Q9NZC2).
T1 sequence (Q9NZC2 19-230): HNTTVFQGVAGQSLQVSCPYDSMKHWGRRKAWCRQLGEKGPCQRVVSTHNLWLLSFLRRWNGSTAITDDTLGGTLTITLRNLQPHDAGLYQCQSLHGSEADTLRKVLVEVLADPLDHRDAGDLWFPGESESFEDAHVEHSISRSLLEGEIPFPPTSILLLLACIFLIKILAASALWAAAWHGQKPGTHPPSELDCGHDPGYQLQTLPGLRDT
The conditions noted are these: cited from earlier work; for Binding Signal (fold over 6E7 parental antibody) 1st screen 110 nM or 10 nM: 10 nM Ab concentration (values not marked *).

B1: V63: 6E7 variant: VH T30R, Q99S; VL N56R, S93R (antibody, V domains shown)
VH: EVQLVQSGAEVKKPGESLKISCKGSGYSFRSYWIAWVRQMPGKGLEWMGIIYPGDSDTRYSPSFQGQVTISADKSISTAYLQWSSLKASDTAMYFCARSRTFYYDSSDYFDYWGQGTLVTVSS
VL: DIQMTQSPSSVSASVGDRVTITCRASQGISSWLAWYQQKPGKAPKLLIYAASSLQRGVPSRFSGSGSGTDFTLTISSLQPEDFATYFCQQADRFPRTFGQGTKLEIK
On to B1, for which the “Binding Signal (fold over 6E7 parental antibody) 1st screen 110 nM or 10 nM” value is listed as 3.76 fold over 6E7 parental antibod, the “Binding Signal (fold over 6E7 parental antibody) 2nd screen 2 nM” value is on record as 4.91 fold over 6E7 parental antibod and the “Binding Signal (fold over 6E7 parental antibody) 2nd screen 10 nM” value is 3.71 fold over 6E7 parental antibod.

B2: V76: 6E7 variant: VH T30G, S63E, F110S; VL N56K (antibody, V domains shown)
VH: EVQLVQSGAEVKKPGESLKISCKGSGYSFGSYWIAWVRQMPGKGLEWMGIIYPGDSDTRYSPEFQGQVTISADKSISTAYLQWSSLKASDTAMYFCARQRTFYYDSSDYSDYWGQGTLVTVSS
VL: DIQMTQSPSSVSASVGDRVTITCRASQGISSWLAWYQQKPGKAPKLLIYAASSLQKGVPSRFSGSGSGRDFTLTISSLQPEDFATYFCQQADSFPRTFGQGTKLEIK
Regarding B2, the “Binding Signal (fold over 6E7 parental antibody) 1st screen 110 nM or 10 nM” value is on record as 4.57 fold over 6E7 parental antibod, the “Binding Signal (fold over 6E7 parental antibody) 2nd screen 2 nM” value was 4.34 fold over 6E7 parental antibod and the “Binding Signal (fold over 6E7 parental antibody) 2nd screen 10 nM” value is 4.93 fold over 6E7 parental antibod.

B3: V86: 6E7 variant: VH T30G, I34L, Q65E, Q99S; VL L54R (antibody, V domains shown)
VH: EVQLVQSGAEVKKPGESLKISCKGSGYSFGSYWLAWVRQMPGKGLEWMGIIYPGDSDTRYSPSFEGQVTISADKSISTAYLQWSSLKASDTAMYFCARSRTFYYDSSDYFDYWGQGTLVTVSS
VL: DIQMTQSPSSVSASVGDRVTITCRASQGISSWLAWYQQKPGKAPKLLIYAASSRQNGVPSRFSGSGSGTDFTLTISSLQPEDFATYFCQQADSFPRTFGQGTKLEIK
For B3, the “Binding Signal (fold over 6E7 parental antibody) 1st screen 110 nM or 10 nM” value is given as 4.80 fold over 6E7 parental antibod, the “Binding Signal (fold over 6E7 parental antibody) 2nd screen 2 nM” value is reported as 5.17 fold over 6E7 parental antibod and the “Binding Signal (fold over 6E7 parental antibody) 2nd screen 10 nM” value was 5.02 fold over 6E7 parental antibod.

B4: V74: 6E7 variant: VH T30A, T58V, Q99G; VL N56L (antibody, V domains shown)
VH: EVQLVQSGAEVKKPGESLKISCKGSGYSFASYWIAWVRQMPGKGLEWMGIIYPGDSDVRYSPSFQGQVTISADKSISTAYLQWSSLKASDTAMYFCARGRTFYYDSSDYFDYWGQGTLVTVSS
VL: DIQMTQSPSSVSASVGDRVTITCRASQGISSWLAWYQQKPGKAPKLLIYAASSLQLGVPSRFSGSGSGTDFTLTISSLQPEDFATYFCQQADSFPRTFGQGTKLEIK
For B4, the “Binding Signal (fold over 6E7 parental antibody) 1st screen 110 nM or 10 nM” value is 3.94 fold over 6E7 parental antibod, the “Binding Signal (fold over 6E7 parental antibody) 2nd screen 2 nM” value is on record as 2.54 fold over 6E7 parental antibod and the “Binding Signal (fold over 6E7 parental antibody) 2nd screen 10 nM” value is 4.01 fold over 6E7 parental antibod.

B5: V85: 6E7 variant: VH T30R, I50T, Q99S; VL L54R (antibody, V domains shown)
VH: EVQLVQSGAEVKKPGESLKISCKGSGYSFRSYWIAWVRQMPGKGLEWMGTIYPGDSDTRYSPSFQGQVTISADKSISTAYLQWSSLKASDTAMYFCARSRTFYYDSSDYFDYWGQGTLVTVSS
VL: DIQMTQSPSSVSASVGDRVTITCRASQGISSWLAWYQQKPGKAPKLLIYAASSRQNGVPSRFSGSGSGTDFTLTISSLQPEDFATYFCQQADSFPRTFGQGTKLEIK
For the molecule B5, the “Binding Signal (fold over 6E7 parental antibody) 1st screen 110 nM or 10 nM” value is given as 5.41 fold over 6E7 parental antibod, the “Binding Signal (fold over 6E7 parental antibody) 2nd screen 2 nM” value was 5.41 fold over 6E7 parental antibod and the “Binding Signal (fold over 6E7 parental antibody) 2nd screen 10 nM” value is listed as 5.37 fold over 6E7 parental antibod.

B6: V73: 6E7 variant: VH T30G, S63G, Q99G; VL L54R, F94Y (antibody, V domains shown)
VH: EVQLVQSGAEVKKPGESLKISCKGSGYSFGSYWIAWVRQMPGKGLEWMGIIYPGDSDTRYSPGFQGQVTISADKSISTAYLQWSSLKASDTAMYFCARGRTFYYDSSDYFDYWGQGTLVTVSS
VL: DIQMTQSPSSVSASVGDRVTITCRASQGISSWLAWYQQKPGKAPKLLIYAASSRQNGVPSRFSGSGSGTDFTLTISSLQPEDFATYFCQQADSYPRTFGQGTKLEIK
On to B6, for which the “Binding Signal (fold over 6E7 parental antibody) 1st screen 110 nM or 10 nM” value is 5.12 fold over 6E7 parental antibod, the “Binding Signal (fold over 6E7 parental antibody) 2nd screen 2 nM” value is 4.17 fold over 6E7 parental antibod and the “Binding Signal (fold over 6E7 parental antibody) 2nd screen 10 nM” value is reported as 5.44 fold over 6E7 parental antibod.

B7: V64: 6E7 variant: VH T30Q, Q99G; VL Q55A, F94Y (antibody, V domains shown)
VH: EVQLVQSGAEVKKPGESLKISCKGSGYSFQSYWIAWVRQMPGKGLEWMGIIYPGDSDTRYSPSFQGQVTISADKSISTAYLQWSSLKASDTAMYFCARGRTFYYDSSDYFDYWGQGTLVTVSS
VL: DIQMTQSPSSVSASVGDRVTITCRASQGISSWLAWYQQKPGKAPKLLIYAASSLANGVPSRFSGSGSGTDFTLTISSLQPEDFATYFCQQADSYPRTFGQGTKLEIK
With B7, the “Binding Signal (fold over 6E7 parental antibody) 1st screen 110 nM or 10 nM” value is given as 5.41 fold over 6E7 parental antibod, the “Binding Signal (fold over 6E7 parental antibody) 2nd screen 2 nM” value is 4.88 fold over 6E7 parental antibod and the “Binding Signal (fold over 6E7 parental antibody) 2nd screen 10 nM” value was 5.48 fold over 6E7 parental antibod.

B8: V84: 6E7 variant: VH S28G, F110S; VL A50G (antibody, V domains shown)
VH: EVQLVQSGAEVKKPGESLKISCKGSGYGFTSYWIAWVRQMPGKGLEWMGIIYPGDSDTRYSPSFQGQVTISADKSISTAYLQWSSLKASDTAMYFCARQRTFYYDSSDYSDYWGQGTLVTVSS
VL: DIQMTQSPSSVSASVGDRVTITCRASQGISSWLAWYQQKPGKAPKLLIYGASSLQNGVPSRFSGSGSGTDFTLTISSLQPEDFATYFCQQADSFPRTFGQGTKLEIK
Turning to B8, the “Binding Signal (fold over 6E7 parental antibody) 1st screen 110 nM or 10 nM” value is listed as 1.44 fold over 6E7 parental antibod, the “Binding Signal (fold over 6E7 parental antibody) 2nd screen 2 nM” value was 1.45 fold over 6E7 parental antibod and the “Binding Signal (fold over 6E7 parental antibody) 2nd screen 10 nM” value is listed as 1.62 fold over 6E7 parental antibod.

B9: V75: 6E7 variant: VH Q99G; VL N56A, F94Y (antibody, V domains shown)
VH: EVQLVQSGAEVKKPGESLKISCKGSGYSFTSYWIAWVRQMPGKGLEWMGIIYPGDSDTRYSPSFQGQVTISADKSISTAYLQWSSLKASDTAMYFCARGRTFYYDSSDYFDYWGQGTLVTVSS
VL: DIQMTQSPSSVSASVGDRVTITCRASQGISSWLAWYQQKPGKAPKLLIYAASSLQAGVPSRFSGSGSGTDFTLTISSLQPEDFATYFCQQADSYPRTFGQGTKLEIK
For the molecule B9, the “Binding Signal (fold over 6E7 parental antibody) 1st screen 110 nM or 10 nM” value is on record as 4.64 fold over 6E7 parental antibod, the “Binding Signal (fold over 6E7 parental antibody) 2nd screen 2 nM” value was 3.74 fold over 6E7 parental antibod and the “Binding Signal (fold over 6E7 parental antibody) 2nd screen 10 nM” value is 4.52 fold over 6E7 parental antibod.

B10: V72: 6E7 variant: VH A35G, Q99G; VL Q55V, F94Y (antibody, V domains shown)
VH: EVQLVQSGAEVKKPGESLKISCKGSGYSFTSYWIGWVRQMPGKGLEWMGIIYPGDSDTRYSPSFQGQVTISADKSISTAYLQWSSLKASDTAMYFCARGRTFYYDSSDYFDYWGQGTLVTVSS
VL: DIQMTQSPSSVSASVGDRVTITCRASQGISSWLAWYQQKPGKAPKLLIYAASSLVNGVPSRFSGSGSGTDFTLTISSLQPEDFATYFCQQADSYPRTFGQGTKLEIK
Take B10: the “Binding Signal (fold over 6E7 parental antibody) 1st screen 110 nM or 10 nM” value is on record as 3.64 fold over 6E7 parental antibod, the “Binding Signal (fold over 6E7 parental antibody) 2nd screen 2 nM” value was 2.50 fold over 6E7 parental antibod and the “Binding Signal (fold over 6E7 parental antibody) 2nd screen 10 nM” value is recorded as 4.01 fold over 6E7 parental antibod.
